Test results taken from publication PMC12216690, “MORC2 is a phosphorylation-dependent DNA compaction machine” (Nature Communications, 2024).

Assays:
MORC2 WT [1] = target: T1, MORC2 WT (Homo sapiens, UniProt Q9Y6X9 1-1032); assay: SPR; EMSA: 20 mM Tris pH 7.4, 75 mM NaCl, 5% glycerol, 0.005% NP-40, 0.5 mM MgCl2, RT 30 min; SPR: 10 mM HEPES pH 7.4, 300 mM NaCl, 3 mM EDTA, 0.05% Tween-20, 20 C; details: protein: recombinant; tags: C-terminal 3C site-twin StrepII; chain copies: 2; label: 5'-biotin on strand 1; blunt
T1 sequence: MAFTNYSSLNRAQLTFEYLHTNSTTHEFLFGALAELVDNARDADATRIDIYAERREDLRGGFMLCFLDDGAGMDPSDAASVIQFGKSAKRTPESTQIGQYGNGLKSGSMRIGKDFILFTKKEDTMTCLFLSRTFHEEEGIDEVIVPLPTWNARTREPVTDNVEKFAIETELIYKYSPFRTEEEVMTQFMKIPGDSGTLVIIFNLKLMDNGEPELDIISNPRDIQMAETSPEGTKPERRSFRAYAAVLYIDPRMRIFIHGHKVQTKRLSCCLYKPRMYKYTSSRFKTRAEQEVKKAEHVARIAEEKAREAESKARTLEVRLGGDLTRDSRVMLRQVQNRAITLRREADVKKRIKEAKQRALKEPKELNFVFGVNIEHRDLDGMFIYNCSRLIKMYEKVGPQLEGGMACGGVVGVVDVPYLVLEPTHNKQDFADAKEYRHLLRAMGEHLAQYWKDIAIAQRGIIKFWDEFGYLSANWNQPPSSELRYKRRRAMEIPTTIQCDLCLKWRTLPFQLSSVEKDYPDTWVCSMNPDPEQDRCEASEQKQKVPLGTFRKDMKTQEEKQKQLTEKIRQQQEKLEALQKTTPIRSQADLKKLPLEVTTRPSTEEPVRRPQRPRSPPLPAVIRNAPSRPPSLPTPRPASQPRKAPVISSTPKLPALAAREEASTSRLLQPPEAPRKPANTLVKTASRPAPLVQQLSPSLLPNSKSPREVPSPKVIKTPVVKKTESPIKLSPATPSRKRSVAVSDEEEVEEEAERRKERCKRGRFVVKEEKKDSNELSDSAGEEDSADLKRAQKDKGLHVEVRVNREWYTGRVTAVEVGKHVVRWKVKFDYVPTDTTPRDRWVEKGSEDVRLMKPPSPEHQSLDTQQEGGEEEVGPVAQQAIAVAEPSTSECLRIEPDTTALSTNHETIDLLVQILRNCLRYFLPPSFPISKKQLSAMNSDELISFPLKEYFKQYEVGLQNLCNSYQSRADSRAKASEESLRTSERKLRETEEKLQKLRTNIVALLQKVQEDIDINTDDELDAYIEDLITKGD

MORC2 dephosphorylated = target: T2, MORC2 dephosphorylated (Homo sapiens, UniProt Q9Y6X9 1-1032); assay: SPR; lambda-PPase treated; EMSA: 20 mM Tris pH 7.4, 75 mM NaCl, 5% glycerol, 0.005% NP-40, 0.5 mM MgCl2, RT 30 min; SPR: 10 mM HEPES pH 7.4, 300 mM NaCl, 3 mM EDTA, 0.05% Tween-20, 20 C; details: protein: recombinant; tags: C-terminal 3C site-twin StrepII; chain copies: 2; label: 5'-biotin on strand 1; blunt
T2 sequence: T1 sequence

MORC2 CW = target: T3, MORC2 CW (Homo sapiens, UniProt Q9Y6X9 496-603); assay: EMSA; negligible binding; EMSA: 20 mM Tris pH 7.4, 75 mM NaCl, 5% glycerol, 0.005% NP-40, 0.5 mM MgCl2, RT 30 min; SPR: 10 mM HEPES pH 7.4, 300 mM NaCl, 3 mM EDTA, 0.05% Tween-20, 20 C; details: protein: recombinant; tags: C-terminal 3C site-twin StrepII; label: 5' 6FAM, IRDye680 or IRDye800 on XOm1; blunt
T3 sequence: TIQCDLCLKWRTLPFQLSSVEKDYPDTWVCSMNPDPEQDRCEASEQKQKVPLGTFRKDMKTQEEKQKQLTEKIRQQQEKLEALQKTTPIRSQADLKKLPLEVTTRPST

MORC2 GHKL+CC1 = target: T4, MORC2 GHKL+CC1 (Homo sapiens, UniProt Q9Y6X9 1-495); assay: as above; details: protein: recombinant; tags: C-terminal 3C site-twin StrepII; label: 5' 6FAM, IRDye680 or IRDye800 on XOm1; blunt
T4 sequence: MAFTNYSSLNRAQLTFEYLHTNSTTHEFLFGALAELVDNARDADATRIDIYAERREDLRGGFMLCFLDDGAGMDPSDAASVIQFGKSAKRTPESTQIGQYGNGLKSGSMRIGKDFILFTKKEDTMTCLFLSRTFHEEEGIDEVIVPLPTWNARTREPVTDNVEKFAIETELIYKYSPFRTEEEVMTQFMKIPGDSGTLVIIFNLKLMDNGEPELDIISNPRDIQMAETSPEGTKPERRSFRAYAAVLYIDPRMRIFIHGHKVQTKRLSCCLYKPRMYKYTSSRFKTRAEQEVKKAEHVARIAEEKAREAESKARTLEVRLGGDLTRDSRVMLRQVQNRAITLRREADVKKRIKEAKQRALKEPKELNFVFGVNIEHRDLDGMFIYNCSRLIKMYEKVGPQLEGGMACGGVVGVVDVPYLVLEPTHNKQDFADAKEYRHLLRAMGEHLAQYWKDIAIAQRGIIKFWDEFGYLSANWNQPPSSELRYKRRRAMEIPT

MORC2 CC2 = target: T5, MORC2 CC2 (Homo sapiens, UniProt Q9Y6X9 544-587); assay: EMSA; DNA length inferred; EMSA: 20 mM Tris pH 7.4, 75 mM NaCl, 5% glycerol, 0.005% NP-40, 0.5 mM MgCl2, RT 30 min; SPR: 10 mM HEPES pH 7.4, 300 mM NaCl, 3 mM EDTA, 0.05% Tween-20, 20 C; details: protein: recombinant; tags: C-terminal 3C site-twin StrepII; label: 5' 6FAM, IRDye680 or IRDye800 on XOm1; blunt
T5 chain: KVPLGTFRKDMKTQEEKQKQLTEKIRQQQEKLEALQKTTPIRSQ

MORC2 CC3 = target: T6, MORC2 CC3 (Homo sapiens, UniProt Q9Y6X9 738-776); assay: as above; details: protein: recombinant; tags: C-terminal 3C site-twin StrepII; label: 5' 6FAM, IRDye680 or IRDye800 on XOm1; blunt
T6 chain: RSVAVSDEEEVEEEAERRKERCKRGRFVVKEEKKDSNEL

MORC2 WT [2] = target: T1, MORC2 WT; assay: competition; pre-bound; 90 bp competitor still taken up; EMSA: 20 mM Tris pH 7.4, 75 mM NaCl, 5% glycerol, 0.005% NP-40, 0.5 mM MgCl2, RT 30 min; SPR: 10 mM HEPES pH 7.4, 300 mM NaCl, 3 mM EDTA, 0.05% Tween-20, 20 C; details: protein: recombinant; tags: C-terminal 3C site-twin StrepII; chain copies: 2; linear
MORC2 ATPase = target: T7, MORC2 ATPase (Homo sapiens, UniProt Q9Y6X9 1-603); assay: competition; pre-bound; more competitor uptake than WT; EMSA: 20 mM Tris pH 7.4, 75 mM NaCl, 5% glycerol, 0.005% NP-40, 0.5 mM MgCl2, RT 30 min; SPR: 10 mM HEPES pH 7.4, 300 mM NaCl, 3 mM EDTA, 0.05% Tween-20, 20 C; details: protein: recombinant; tags: N-terminal 6xHis; closed circle
T7 sequence: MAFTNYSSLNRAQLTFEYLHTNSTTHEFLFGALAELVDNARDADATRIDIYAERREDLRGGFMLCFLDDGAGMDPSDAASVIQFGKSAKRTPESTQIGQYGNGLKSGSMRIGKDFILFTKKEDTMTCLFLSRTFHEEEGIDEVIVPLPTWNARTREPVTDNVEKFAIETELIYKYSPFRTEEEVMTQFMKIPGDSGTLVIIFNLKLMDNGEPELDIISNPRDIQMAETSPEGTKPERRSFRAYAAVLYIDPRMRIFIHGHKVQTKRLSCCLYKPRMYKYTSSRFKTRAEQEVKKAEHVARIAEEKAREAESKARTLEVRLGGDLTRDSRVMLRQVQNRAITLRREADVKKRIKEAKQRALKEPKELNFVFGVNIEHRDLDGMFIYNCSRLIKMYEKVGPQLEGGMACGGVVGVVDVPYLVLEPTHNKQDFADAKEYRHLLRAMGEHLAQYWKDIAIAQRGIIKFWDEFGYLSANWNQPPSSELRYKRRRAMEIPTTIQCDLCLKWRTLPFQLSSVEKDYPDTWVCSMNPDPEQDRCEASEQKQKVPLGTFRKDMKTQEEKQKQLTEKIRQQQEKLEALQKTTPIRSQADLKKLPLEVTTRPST

MORC2 WT [3] = target: T1, MORC2 WT; assay: competition; pre-bound; resists 90 bp competitor (clamp); EMSA: 20 mM Tris pH 7.4, 75 mM NaCl, 5% glycerol, 0.005% NP-40, 0.5 mM MgCl2, RT 30 min; SPR: 10 mM HEPES pH 7.4, 300 mM NaCl, 3 mM EDTA, 0.05% Tween-20, 20 C; details: protein: recombinant; tags: C-terminal 3C site-twin StrepII; chain copies: 2; closed circle

B1: 60 bp dsDNA (biotin, SPR) (dsDNA)
DNA 1: ACGCTGCCGAATTCTACCAGTGCCTTGCTAGGACATCTTTGCCCACCTGCAGGTTCACCC
DNA 2: GGGTGAACCTGCAGGTGGGCAAAGATGTCCTAGCAAGGCACTGGTAGAATTCGGCAGCGT
Kd (MORC2 WT [1]): 26.3 ± 11.4 nM
Kd (MORC2 dephosphorylated): 15.3 ± 9.1 nM

B2: 60 bp dsDNA (XOm1/XOm1.comp) (dsDNA)
DNA 1: B1 DNA 1
DNA 2: B1 DNA 2
binding result (MORC2 CW): no binding
binding result (MORC2 GHKL+CC1): no binding
binding result (MORC2 CC2): binds
binding result (MORC2 CC3): no binding

B3: 101 bp linear dsDNA (dsDNA)
DNA 1: CGGTCGTTTAGCATACTAATCTGAGAGTCCGACGGTCGTCAGTCAGTCATGACTTCACAGAGGAAGGGCCAGTATCCTGTCCAAACTTGATGCTCGAATTC
DNA 2: GAATTCGAGCATCAAGTTTGGACAGGATACTGGCCCTTCCTCTGTGAAGTCATGACTGACTGACGACCGTCGGACTCTCAGATTAGTATGCTAAACGACCG
binding result (MORC2 WT [2]): binds

B4: 101 bp circular dsDNA (dsDNA)
DNA 1: B3 DNA 1
DNA 2: B3 DNA 2
binding result (MORC2 ATPase): binds
binding result (MORC2 WT [3]): binds
